Experimental data taken from patent publication US20160024208A1.

How the values were obtained:
[1] = biological target: N-term Biotin Nav1.7 (3-3) peptide, mouse (mouse); test: ELISA on coated peptide
[2] = biological target: full-length human Nav1.7 fused at its N-terminus to GFP, expressed in HEK293 cells (human) (UniProt Q15858); test: flow cytometry; % stained hNav1.7-GFP-HEK293 minus parental HEK293
[3] = biological target: full-length human Nav1.7 fused at its N-terminus to GFP, expressed in HEK293 cells (human) (UniProt Q15858); test: cell-based or functional assay
[4] = biological target: full-length human Nav1.7 fused at its N-terminus to GFP, expressed in HEK293 cells (human) (UniProt Q15858); test: flow cytometry on Nav1.7-GFP-HEK293, antibody 3.3 nM preincubated with 3.3 uM EC 3-1 peptide as competitor
[5] = biological target: full-length human Nav1.7 fused at its N-terminus to GFP, expressed in HEK293 cells (human) (UniProt Q15858); test: flow cytometry on Nav1.7-GFP-HEK293, antibody 3.3 nM

Binder	OD450 [1] [od]	% Binding Nav1.7 [2] [%]	Current blocking (Average % inhibition), IonWorks Quattro, 223 nM antibody [3] [%]	% Binding Nav1.7 + 1000x Peptide (Competition Binding) [4] [%]	% Binding Nav1.7 (Stable Line) [5] [%]
H4H471B (antibody, V domains shown) VH: EVQLVESGGGLVKPGGSLRLSCAASGVTFSDYYMTWIRQAPGKGLEWVSYISTDGRTIYYADSVKGRFTISRDNAKNSLYLQMNNLRAEDTAVYYCARGVDSDDYEDFYSYYDMDVWGQGTTVTVSS VL: DIQMTQSPSSLSASVGDRVTITCRASQGISNYLAWFQQKPGKAPKSLIYAASSLQGGVPSRFSGSGSGTDFTLTISSLQPEDFATYYCQQYNSYPLTFGGGTKVEIKR	< 0.2				
H4H382B (antibody, V domains shown) VH: EVQLVQSGGGVVQPGRSLRLSCEASGFTFSSYGMHWVRQAPGKGLEWVAVISYDGSNKHYTDSVKGRFTISRDNSKNTLYLQMNSLRAEDTAVYFCAQSRGYSYGLGYWGQGTLVTVSS VL: DIQMTQSPDSLAVSLGERATINCKSSQSVLSSSNNENYLVWYQQKPGQPPKLLIYWASTREPGVPDRFSGGGSGTDFTLTISSLQAEDVAVYYCQQYHSIPYTFGQGTKVEIKR		13	-6		
H4H441B (antibody, V domains shown) VH: QVQLQQWGAGLLKPSETLSLTCAVYGGSFSGHYWTWIRQPPGKGLEWIGEINHRGNTNYNPSLKSRATISVDTSKNQFSLKLSSVTAADTAVYYCAREGSLAARLWFFDLWGRDTPVTVSS VL: DIQMTQSPSSLSASVGDRGTVTCRASQNIRTYLNWYQQKPGKAPKLLIYAASSLQSGVPSRFSGSGSGTDFTLTISSLQPEDFATYYCQQSYGTPYTFGQGTKVEIKR			81		
H4H448B (antibody, V domains shown) VH: EVQLVQSGGGLVQPGRSLRLSCAASGFTFDDYAMHWVRQAPGKGLEWVSGISWNSGSIGYADSVKGRFTISRDNAKNSLYLQMNSLRAEDTALYYCAKDIEYYDILTGYYSYYIMDVWGQGTTVTVSS VL: DIRMTQSPSSLSASVGDRGTITCRASQNINSYLNWYQLKPGKAPKLLIFAASSLQSGVPSRFSGSGSGTDFTLTISSLQPEDFATYYCQQSYSSPFTFGQGTKVEIKR		9.2		5.8	9.2
H4H443B (antibody, V domains shown) VH: QVQLVESGGGLVQPGRSLRLSCAASGFTFDDYAMHWVRQVPGKGLEWVSGINWNSGSIGYADSVKGRFTISRDNAKNSLFLQMNSLRAEDTALYYCAKDIEYYDILTGYYSYYIMDVWGQGTTVTVSS VL: DIQMTQSPSFLSASVGDRVTITCWASQGISSYLAWYQQKPGKAPKLLIYASSTLQSGVPSRFSGSGSGTEFTLTISSLQPEDFATYYCQQFNSYPPTFGQGTKVEIKR		10.1		5.1	10.1
